Experiment in all cases: purified protein
What all share (type): biochemical, Trichomonas vaginalis
Common to all, as to conditions: NADPH co-substrate, 100 mM potassium phosphate pH 5.5, 37 °C

In data set [1] the test system is Cc1cc2nc3c(=O)[nH]c(=O)nc-3n(C[C@H](O)[C@H](O)[C@H](O)COP(=O)(O)O)c2cc1C.
Data set [2] has as its system Cc1cc2nc3c(=O)[nH]c(=O)nc-3n(C[C@H](O)[C@H](O)[C@H](O)COP(=O)(O)OP(=O)(O)OC[C@H]3O[C@@H](n4cnc5c(N)ncnc54)[C@H](O)[C@@H]3O)c2cc1C.
Data set [3] concerns Cc1cc2nc3c(=O)[nH]c(=O)nc-3n(C[C@H](O)[C@H](O)[C@H](O)CO)c2cc1C.

For “Flavin reductase 5 (FR5) (Trichomonas vaginalis G3)”, the Km in data set [1] was 186.9 ± 30.3 µM; in data set [2], 267.4 ± 21.6 µM; in data set [3] it was 94.4 ± 11.5 µM.

Regarding “Flavin reductase 1 (FR1) (Trichomonas vaginalis G3)”, the results for the Km in data set [1] and in data set [2] were 10 ± 1.4 µM and 16.5 ± 2.5 µM, respectively.

On to “Flavin reductase 6 (FR6) (Trichomonas vaginalis G3)”, for which the values for the Michaelis-Menten constant (Km) in data set [1], in data set [2] and in data set [3] were 160 ± 23.9 µM, 192.1 ± 12.2 µM and 97.5 ± 28.8 µM, respectively.

For orientation: Km means the substrate concentration at which the rate is half of its maximum.

Values taken from PMC4437529.
